Experiments:
Type in all cases: biochemical
Trastuzumab-G2F = experiment: Transfer of GDP-FAmP4Biotin to Trastuzumab-G2F by different HpFTs (% of conversion by MS); conditions: donor GDP-FAmP4Biotin 1 mM, enzyme 0.5 mg/mL, 30° C., 3 h; FIG. 1
Procedure: (§1) To 40 mM Tris-HCl (pH 7.5) buffer were added Trastuzumab-G2F (2 mg/mL final), GDP-FAmP4Biotin (1 mM final), MgCl2 (20 mM final), and different HpFT enzymes (HpFT-4HR, HpFT-4HR(M4), HpFT-4HR(M7), HpFT-6HR, HpFT-3HR, HpFT-2HR, HpFT-1HR, or HpFT-0HR) (0.5 mg/mL final) in sequence, and the resulting mixed solution was allowed to react at 30° C. for 3 h. Three parallels were set up for each group. After the reaction time point was reached, to the reaction solution was added 10 mM LacNAc (N-acetyl-D-lactosamine), and the reaction was terminated by a desalting column (Zeba™ Spin Desalting Columns/2 ml/40K, Thermo Fisher Scientific), and finally mass spectrometry was carried out and % of conversion was calculated. % of conversion=(MAR0 peak intensity*0+MAR1peak intensity*1+MAR2 peak intensity*2+MAR3 peak intensity*3+MAR4 peak intensity*4)/4* (MAR0 peak intensity+MAR1 peak intensity+MAR2 peak intensity+MAR3 peak intensity+MAR4 peak intensity)*100%.

[1] = tested on: Trastuzumab-(Fucα1,6)(Galβ1,4)GlcNAc; experiment: Transfer of GDP-FAmP4Biotin to Trastuzumab-(Fucα1,6)(Galβ1,4)GlcNAc by different HpFTs; conditions: donor GDP-FAmP4Biotin 1 mM, enzyme 0.5 mg/mL, 30° C., 1 h; FIG. 2
Procedure: as §1, with “added Trastuzumab-(Fucα1,6)(Galβ1,4)GlcNAc” for “added Trastuzumab-G2F”, “HpFT-2HR, HpFT-1HR” for “HpFT-2HR, HpFT-1HR,”, “for 1” for “for 3”, “mM LacNA,” for “mM LacNAc (N-acetyl-D-lactosamine),”, “peak intensity*2)/2*” for “peak intensity*2+MAR3 peak intensity*3+MAR4 peak intensity*4)/4*”, “peak” for “peak intensity+MAR3 peak intensity+MAR4 peak”

[2] = tested on: Trastuzumab-(Fucα1,6)(GalNAzβ1,4)GlcNAc; experiment: Transfer of GDP-FAmP4Biotin to Trastuzumab-(Fucα1,6)(GalNAzβ1,4)GlcNAc by different HpFTs; conditions: donor GDP-FAmP4Biotin 1 mM, enzyme 0.5 mg/mL, 30° C., 3 h; FIG. 3
[3] = tested on: Trastuzumab-(GalNAzβ1,4)GlcNAc; experiment: Transfer of GDP-FAmP4Biotin to Trastuzumab-(GalNAzβ1,4)GlcNAc by different HpFTs; conditions: donor GDP-FAmP4Biotin 1 mM, enzyme 0.5 mg/mL, 30° C., 3 h; FIG. 4

B1: HpFT-3HR: H. pylori α-1,3-fucosyltransferase variant: catalytically active domain, three heptapeptide repeat sequences and C-terminus fused His tag (protein)
chain: MFQPLLDAFIESASIEKMVSKSPPPPLKIAVANWWGDEEIKEFKKSVLYFILSQRYAITLHQNPNESSDLVFSNPLGAARKILSYQNTKRVFYTGENESPNFNLFDYAIGFDELDFNDRYLRMPLYYAHLHYEAELVNDTTAPYKLKDNSLYALKKPSHHFKENHPNLCAVVNDESDLLKRGFASFVASNANAPMRNAFYDALNSIEPVTGGGSVRNTLGYKVGNKSEFLSQYKFNLCFENSQGYGYVTEKILDAYFSHTIPIYWGSPSVAKDFNPKSFVNVHDFNNFDEAIDYIKYLHTHPNAYLDMLYENPLNTLDGKAYFYQDLSFKKILDFFKTILENDTIYHNNPFIFYRDLHEPLISIDDLRVNYDDLRVNYDDLRVNYLEHHHHHH
modifications: Catalytically active domain of Helicobacter pylori Alpha-(1,3)-fucosyltransferase (GenBank No.AAD07710.1) with 3 heptapeptide repeats and a C-terminal His tag
catalytic activity as compared with HpFT-4HR (% of conversion) (Trastuzumab-G2F): significantly improved catalytic activity
catalytic activity as compared with HpFT-4HR (% of conversion) [1]: significantly improved catalytic activity
catalytic activity as compared with HpFT-4HR (% of conversion) [2]: significantly improved catalytic activity
catalytic activity as compared with HpFT-4HR (% of conversion) [3]: significantly improved catalytic activity

B2: HpFT-0HR: HpFT variant: catalytically active domain and C-terminus fused His tag, no heptapeptide repeat (protein)
chain: MFQPLLDAFIESASIEKMVSKSPPPPLKIAVANWWGDEEIKEFKKSVLYFILSQRYAITLHQNPNESSDLVFSNPLGAARKILSYQNTKRVFYTGENESPNFNLFDYAIGFDELDFNDRYLRMPLYYAHLHYEAELVNDTTAPYKLKDNSLYALKKPSHHFKENHPNLCAVVNDESDLLKRGFASFVASNANAPMRNAFYDALNSIEPVTGGGSVRNTLGYKVGNKSEFLSQYKFNLCFENSQGYGYVTEKILDAYFSHTIPIYWGSPSVAKDFNPKSFVNVHDFNNFDEAIDYIKYLHTHPNAYLDMLYENPLNTLDGKAYFYQDLSFKKILDFFKTILENDTIYHNNPFIFYRDLHEPLISILEHHHHHH
modifications: Catalytically active domain of Helicobacter pylori Alpha-(1,3)-fucosyltransferase (GenBank No.AAD07710.1) with a C-terminal His tag
catalytic activity as compared with HpFT-4HR (% of conversion) [1]: significantly decreased activity
catalytic activity as compared with HpFT-4HR (% of conversion) [2]: significantly decreased activity
catalytic activity as compared with HpFT-4HR (% of conversion) [3]: significantly decreased activity

B3: HpFT-1HR: H. pylori α-1,3-fucosyltransferase variant: catalytically active domain, a heptapeptide repeat sequence and C-terminus fused His tag (protein)
chain: MFQPLLDAFIESASIEKMVSKSPPPPLKIAVANWWGDEEIKEFKKSVLYFILSQRYAITLHQNPNESSDLVFSNPLGAARKILSYQNTKRVFYTGENESPNFNLFDYAIGFDELDFNDRYLRMPLYYAHLHYEAELVNDTTAPYKLKDNSLYALKKPSHHFKENHPNLCAVVNDESDLLKRGFASFVASNANAPMRNAFYDALNSIEPVTGGGSVRNTLGYKVGNKSEFLSQYKFNLCFENSQGYGYVTEKILDAYFSHTIPIYWGSPSVAKDFNPKSFVNVHDFNNFDEAIDYIKYLHTHPNAYLDMLYENPLNTLDGKAYFYQDLSFKKILDFFKTILENDTIYHNNPFIFYRDLHEPLISIDDLRVNYLEHHHHHH
modifications: Catalytically active domain of Helicobacter pylori Alpha-(1,3)-fucosyltransferase (GenBank No.AAD07710.1) with 1 heptapeptide repeat and a C-terminal His tag
catalytic activity as compared with HpFT-4HR (% of conversion) (Trastuzumab-G2F): significantly improved catalytic activity
catalytic activity as compared with HpFT-4HR (% of conversion) [1]: significantly improved catalytic activity
catalytic activity among the HpFT variants [2]: relatively high catalytic activity
catalytic activity as compared with HpFT-4HR (% of conversion) [2]: significantly improved catalytic activity
catalytic activity among the HpFT variants [3]: relatively high catalytic activity
catalytic activity as compared with HpFT-4HR (% of conversion) [3]: significantly improved catalytic activity

B4: HpFT-6HR: HpFT variant: catalytically active domain, six heptapeptide repeat sequences and C-terminus fused His tag (protein)
chain: MFQPLLDAFIESASIEKMVSKSPPPPLKIAVANWWGDEEIKEFKKSVLYFILSQRYAITLHQNPNESSDLVFSNPLGAARKILSYQNTKRVFYTGENESPNFNLFDYAIGFDELDFNDRYLRMPLYYAHLHYEAELVNDTTAPYKLKDNSLYALKKPSHHFKENHPNLCAVVNDESDLLKRGFASFVASNANAPMRNAFYDALNSIEPVTGGGSVRNTLGYKVGNKSEFLSQYKFNLCFENSQGYGYVTEKILDAYFSHTIPIYWGSPSVAKDFNPKSFVNVHDFNNFDEAIDYIKYLHTHPNAYLDMLYENPLNTLDGKAYFYQDLSFKKILDFFKTILENDTIYHNNPFIFYRDLHEPLISIDDLRVNYDDLRVNYDDLRVNYDDLRVNYDDLRVNYDDLRVNYLEHHHHHH
modifications: Catalytically active domain of Helicobacter pylori Alpha-(1,3)-fucosyltransferase (GenBank No.AAD07710.1) with 6 heptapeptide repeats and a C-terminal His tag
catalytic activity as compared with HpFT-4HR (% of conversion) [1]: no obvious activity change
catalytic activity as compared with HpFT-4HR (% of conversion) [2]: little activity change
catalytic activity as compared with HpFT-4HR (% of conversion) [3]: little activity change

From patent US20240335558A1, “ISOLATED POLYPEPTIDE AND USE THEREOF” (GLYCO-THERAPY BIOTECHNOLOGY CO., LTD., priority 2021, published 2024)
